According to US20240254227A1 (Alector, published 2024):
Where a chain is given by its changes, count along the chain named.

B1: anti-CD300LB antibody CD-03 (antibody, V domains shown)
VH: EVQLQQSGPELVKPGASVKISCKASGYTFTDYYINWVRQSHGKSLECIGDINPNNGGTNYNQKFKGKATLTVDRSSNTAYMEFRSLTFDDSALYYCAAEGAYWGQGTLVTVSA
VL: not shown
B2: anti-CD300LB antibody CD-05 (antibody, V domains shown)
VH: QVQLVQSGAEVKKPGASVKVSCKASGYTFSRYYINWVRQAPGQGLEWMGWINPNSGGTNYAQKFQGRVTMTRDTSTSTVYMELSSLRSEDTAVYYCTTDQLRFGKTGPYYGMDVWGQGTTVTVSS
VL: DIQMTQSPSSLSASVGDRVTITCRASQNIGTYLNWYQQKPGKAPKLLIYAASSLQSGVPSRFSGSGSGTDFTLTISSLQPEDFATYYCQQSYSDTLTFGGGTKVEIK
B3: anti-CD300LB antibody CD-02 (antibody, V domains shown)
VH: QVQLQQPGAELVRPGSSVKLSCQASGYTFTNYWMHWVRQRPIQGLEWIGNIDPSDSETHYNQKFKDRATLTVDKSSSTAYMQLSSLTSEDSAVYYCARSGVYDDEGGDYWGQGTTLTVSS
VL: ENVLTQSPAIMSASPGEKVTMTCSASSSVSYIHWYQQKSSTSPKLWIYDTSKLASGVPGRFSGSGSGNSYSLTISSMETEDVATYYCFQGSGYPLTFGAGTKLELK
B4: anti-CD300LB antibody CD-01 (antibody, V domains shown)
VH: RVQLQQSGAELVRPGASVTLSCKASGFTFTDFEMHWVKKTPVHGLEWIGAIDPESGNTAYNQKFRGKATLTADKSSSTAYMELRYLTSEDSAVYYCTPLISGADYWGQGTTLTVSS
VL: DVVMTQSPLSLPVSLGDQASISCRSSQSLVHSDGNTYLYWYLQKPGQSPKLLIYKVSNRFSGVPDRFSGSGSGTDFTFKISRVGAEDLGVYFCSQSTHVPWTFGGGTKLEII
B5: anti-CD300LB antibody CD-18 (antibody, V domains shown)
VH: DVQLQESGPDLVKPSQSLSLTCTVTGYSITSGYSWHWIRQFPDNKLEWMGYILSRGDTNFNPSLKSRISITRSTSNNQFFLHFNSVTTEDTATYYCARDFFDYWGQGTTLTVSS
VL: DVLMTQTPLSLPVSLGDQASISCRSSQSIVHSNGNTYLEWYLQKPGQSPKLLIYKVSDRFSGVPDRFSGSGSGTDFTLKISRVEAEDLGVYFCFQGSHVPYTFGGGTKLEIK
B6: anti-CD300LB antibody CD-12 (antibody, V domains shown)
VH: QIQLVQSGPELKKPGETVKISCKASGYTFTDYSMHWVRQAPGKGLKWMAWINTETGEATHADDFKGRFDFSLDTSASTAYLQIKNLKNEDTGIYFCVCYGSSYGMDYWGQGTSVTVSS
VL: DIVLTQSPASLPVSLGQRATISCRASKSVRTSGASYMHWYQQKPGQPPKLLIYLASNLKSGVPTRFSGSGSGTDFTLNIHPVEEEDAATYYCQHNREVPPTFGGGTKLEIK
B7: anti-CD300LB antibody CD-17 (antibody, V domains shown)
VH: QIQLVQSGPELKKPGETVKISCKASGYTLTDYSMHWVKQAPGKGLKWMGWINTETGEPRYGDDFKGRFAFSLETSASSAYLQINNLKNDDTATYFCATYGRSYGMDFWGQGTSVTVSS
VL: B6 VL with P12A, R30S, T31P, A34H, T64A, E85G, V98L, T106S
B8: anti-CD300LB antibody CD-15 (antibody, V domains shown)
VH: QIQLVQSGPELKKPGETVKISCQVSGYTFTDYSMHWLKQAPGKGLKWMAWINTETGESTYTDEFKGRFVFSLETSVRTAYLKINNLKNEDTATYFCGTYGSSYGMAYWGQGTSVTVSS
VL: B6 VL with R30S, A34S, M37L, N57K, K59E, T64A, S67R
B9: anti-CD300LB antibody CD-11 (antibody, V domains shown)
VH: QIQLVQSGPEVKKPGETVKISCKASGYTLTDYSMHWVMQTPGTGLKWMAWMNTETGEPTYADDFKGRFAFSLETSAGTAYLQIDNLKNEDTATYFCATYGKSYGMKYWGQGTSVTVSS
VL: DIVLTQSPPSLAVSLGQRATISCRATKSVSPYLHWYQQTPGQPPKLLIYLASNLDSGVPARFSGSGSGTDFTLNIHPVEEEDAATYYCQHNKELPPTFGGGTRLEIK

Target: T1, human CD300C-Fc (human)
T1 construct: hIgG1-Fc fusion; the entry is the whole fusion chain
T1 chain: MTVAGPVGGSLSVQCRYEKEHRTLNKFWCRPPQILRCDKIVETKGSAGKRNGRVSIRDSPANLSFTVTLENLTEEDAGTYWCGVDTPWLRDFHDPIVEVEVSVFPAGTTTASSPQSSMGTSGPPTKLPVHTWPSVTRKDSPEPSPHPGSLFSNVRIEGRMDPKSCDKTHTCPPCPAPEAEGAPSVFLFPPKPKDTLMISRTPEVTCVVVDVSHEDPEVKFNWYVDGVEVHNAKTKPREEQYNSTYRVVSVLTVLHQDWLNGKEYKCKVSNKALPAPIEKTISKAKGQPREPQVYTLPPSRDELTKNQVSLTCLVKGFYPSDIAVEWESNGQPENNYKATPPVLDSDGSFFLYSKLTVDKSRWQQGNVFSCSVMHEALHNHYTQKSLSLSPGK
Assay: SPR (Carterra LSA), antibody immobilised
In short: (§1)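 Mouse anti-CD300LB IgG1 antibodies were amine-coupled in a 96-spot array on an HC200M chip; Fc-fused CD300 ectodomains (human on hIgG1-Fc) flowed over as analytes at 300 nM or 600 nM in HBS-TE with 0.5 mg/ml BSA, injected in series without regeneration, with kinetics fitted by high-throughput analysis.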

Binding result, no binding (tested: 300 nM or 600 nM):
B1, B2, B3, B4

Target: T2, human CD300E-Fc (human)
T2 construct: hIgG1-Fc fusion; the entry is the whole fusion chain
T2 chain: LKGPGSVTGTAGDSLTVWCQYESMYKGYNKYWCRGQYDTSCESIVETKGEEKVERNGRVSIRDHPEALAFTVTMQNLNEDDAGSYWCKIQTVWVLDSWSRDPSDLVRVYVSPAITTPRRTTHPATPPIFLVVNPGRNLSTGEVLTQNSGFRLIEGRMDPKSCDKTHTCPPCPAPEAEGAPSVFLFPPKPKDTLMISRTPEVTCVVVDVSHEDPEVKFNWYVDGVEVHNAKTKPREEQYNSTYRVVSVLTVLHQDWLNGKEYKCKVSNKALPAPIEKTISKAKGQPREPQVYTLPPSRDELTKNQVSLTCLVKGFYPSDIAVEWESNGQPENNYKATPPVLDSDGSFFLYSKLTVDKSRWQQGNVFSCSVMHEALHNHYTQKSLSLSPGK
Assay: SPR (Carterra LSA), antibody immobilised
In short: as §1

Binding result, no binding (tested: 300 nM or 600 nM):
B1, B2, B3, B4

Target: T3, murine CD300C-Fc (mouse)
T3 construct: mouse IgG2a-Fc fusion (R&D Systems); the entry is the whole fusion chain; also called mCD300C; Mouse CD300C-Fc
T3 chain: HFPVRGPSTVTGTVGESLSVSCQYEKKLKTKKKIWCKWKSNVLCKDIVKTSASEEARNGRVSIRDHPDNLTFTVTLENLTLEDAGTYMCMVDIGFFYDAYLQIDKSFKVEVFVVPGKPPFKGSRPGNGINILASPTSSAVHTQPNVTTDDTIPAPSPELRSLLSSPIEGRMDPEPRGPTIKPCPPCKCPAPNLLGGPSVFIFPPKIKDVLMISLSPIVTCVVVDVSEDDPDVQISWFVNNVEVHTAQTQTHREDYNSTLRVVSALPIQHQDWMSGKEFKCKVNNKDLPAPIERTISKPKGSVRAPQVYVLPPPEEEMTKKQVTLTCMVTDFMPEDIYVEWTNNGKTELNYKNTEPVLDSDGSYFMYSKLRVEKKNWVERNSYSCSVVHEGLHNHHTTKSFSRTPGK
Assay: SPR (Carterra LSA), antibody immobilised
In short: as §1

Binding result, no binding (tested: 300 nM or 600 nM):
B5, B6, B7

Target: T4, murine CD300D-Fc (mouse)
T4 construct: mouse IgG2a-Fc fusion (R&D Systems); the entry is the whole fusion chain; also called mCD300D; Mouse CD300D-Fc
T4 chain: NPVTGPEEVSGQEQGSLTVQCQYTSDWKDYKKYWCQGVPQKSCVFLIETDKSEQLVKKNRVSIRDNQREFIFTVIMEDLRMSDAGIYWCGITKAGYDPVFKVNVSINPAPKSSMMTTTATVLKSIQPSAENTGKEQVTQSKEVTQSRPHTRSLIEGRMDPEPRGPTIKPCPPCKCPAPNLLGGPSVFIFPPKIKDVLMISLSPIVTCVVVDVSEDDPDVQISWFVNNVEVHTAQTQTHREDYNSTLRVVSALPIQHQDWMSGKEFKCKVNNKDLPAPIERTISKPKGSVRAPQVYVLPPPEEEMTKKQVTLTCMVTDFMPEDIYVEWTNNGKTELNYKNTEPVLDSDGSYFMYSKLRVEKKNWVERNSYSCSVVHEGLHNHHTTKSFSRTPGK
Assay: SPR (Carterra LSA), antibody immobilised
In short: as §1

Binding result, no binding (tested: 300 nM or 600 nM):
B5, B6, B7, B8, B9
